# B1: Protein PTHB1 (Homo sapiens), Q3SYG4 (parent)
# chain: MSLFKARDWWSTILGDKEEFDQGCLCLANVDNSGNGQDKIIVGSFMGYLRIFSPHPAKTGDGAQAEDLLLEVDLRDPVLQVEVGKFVSGTEMLHLAVLHSRKLCVYSVSGTLGNVEHGNQCQMKLMYEHNLQRTACNMTYGSFGGVKGRDLICIQSMDGMLMVFEQESYAFGRFLPGFLLPGPLAYSSRTDSFLTVSSCQQVESYKYQVLAFATDADKRQETEQQKLGSGKRLVVDWTLNIGEQALDICIVSFNQSASSVFVLGERNFFCLKDNGQIRFMKKLDWSPSCFLPYCSVSEGTINTLIGNHNNMLHIYQDVTLKWATQLPHIPVAVRVGCLHDLKGVIVTLSDDGHLQCSYLGTDPSLFQAPNVQSRELNYDELDVEMKELQKIIKDVNKSQGVWPMTEREDDLNVSVVVSPNFDSVSQATDVEVGTDLVPSVTVKVTLQNRVILQKAKLSVYVQPPLELTCDQFTFEFMTPDLTRTVSFSVYLKRSYTPSELEGNAVVSYSRPTDRNPDGIPRVIQCKFRLPLKLICLPGQPSKTASHKITIDTNKSPVSLLSLFPGFASQSDDDQVNVMGFHFLGGARITVLASKTSQRYRIQSEQFEDLWLITNELILRLQEYFEKQGVKDFACSFSGSIPLQEYFELIDHHFELRINGEKLEELLSERAVQFRAIQRRLLARFKDKTPAPLQHLDTLLDGTYKQVIALADAVEENQGNLFQSFTRLKSATHLVILLIALWQKLSADQVAILEAAFLPLQEDTQELGWEETVDAAISHLLKTCLSKSSKEQALNLNSQLNIPKDTSQLKKHITLLCDRLSKGGRLCLSTDAAAPQTMVMPGGCTTIPESDLEERSVEQDSTELFTNHRHLTAETPRPEVSPLQGVSE
# partner: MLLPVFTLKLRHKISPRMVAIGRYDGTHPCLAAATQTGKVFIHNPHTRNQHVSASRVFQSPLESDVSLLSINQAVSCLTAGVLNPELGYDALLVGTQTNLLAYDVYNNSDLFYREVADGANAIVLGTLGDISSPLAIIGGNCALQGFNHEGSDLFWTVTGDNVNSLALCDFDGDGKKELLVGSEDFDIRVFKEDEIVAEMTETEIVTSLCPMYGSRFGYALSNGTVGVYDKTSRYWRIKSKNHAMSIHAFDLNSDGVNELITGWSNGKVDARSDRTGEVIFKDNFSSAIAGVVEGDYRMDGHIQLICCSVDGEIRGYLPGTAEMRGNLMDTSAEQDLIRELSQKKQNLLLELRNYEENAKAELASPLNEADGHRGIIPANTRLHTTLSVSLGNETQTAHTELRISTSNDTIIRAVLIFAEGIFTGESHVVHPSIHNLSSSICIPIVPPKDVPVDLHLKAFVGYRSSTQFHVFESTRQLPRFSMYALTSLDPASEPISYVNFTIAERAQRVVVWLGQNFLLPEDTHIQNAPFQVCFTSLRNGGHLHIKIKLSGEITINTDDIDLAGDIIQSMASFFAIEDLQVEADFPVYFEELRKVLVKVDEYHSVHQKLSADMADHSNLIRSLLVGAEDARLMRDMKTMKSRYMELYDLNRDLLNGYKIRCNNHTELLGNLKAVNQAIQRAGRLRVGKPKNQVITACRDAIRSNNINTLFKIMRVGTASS
# Variants of: B1
# Conditions: with bbs2_human BBS2, Q9BXC9
row,Variant,effect of a mutation on the interaction
1,F527E,with no effect
2,S498E,with no effect
3,Y490A,with no effect
4,V444A,with no effect
5,K492A,with no effect
6,P564A,with no effect
7,F566K,with no effect
8,V577A,with no effect
9,E615A,with no effect
10,T484E,with no effect
11,P438K,with no effect
12,G518A,with no effect
13,D551A,with no effect
14,Q447E,with no effect
15,K532A,with no effect
16,K443A,with no effect
17,Q453E,with no effect
18,G433E,with no effect
19,G433K,with no effect
20,E475A,with no effect
21,R493E,with no effect
22,G585A,with no effect
23,V437E,with no effect
24,S423E,with no effect
25,L609E,with no effect
26,Q621K,with no effect
27,L616E,with no effect

row,Variant,effect of a mutation on the interaction
1,V522K,with no effect
2,V485A,with no effect
3,R514A,with no effect
4,S555A,with no effect
5,D513A,with no effect
6,D435E,with no effect
7,C525E,with no effect
8,R407K,with no effect
9,R407E,with no effect
10,V505A,with no effect
11,L411K,with no effect
12,N515E,with no effect
13,L531A,with no effect
14,T441A,with no effect
15,K454A,with no effect
16,T613I,disrupting interaction strength
17,V489E,with no effect
18,Q462T,disrupting interaction strength
19,S570K,with no effect
20,V506K,with no effect
21,T512A,with no effect
22,Y495E,with no effect
23,T405E,with no effect
24,F421A,with no effect
25,L611A,with no effect
26,W610A,with no effect
27,L446A,with no effect

row,Variant,effect of a mutation on the interaction
1,V424K,with no effect
2,L560K,with no effect
3,D410E,with no effect
4,D410K,with no effect
5,F487E,with no effect
6,V440E,with no effect
7,L536E,with no effect
8,T549K,with no effect
9,L559K,with no effect
10,S561A,with no effect
11,V459A,with no effect
12,N553K,with no effect
13,Q539K,with no effect
14,F606K,with no effect
15,I519K,with no effect
16,P540K,with no effect
17,I601K,with no effect
18,S414K,with no effect
19,S414E,with no effect
20,N576E,with no effect
21,F582A,with no effect
22,G538K,with no effect
23,E408K,with no effect
24,L467E,with no effect
25,Q574L,disrupting interaction strength

# The remaining lines, values ahead:
row,effect of a mutation on the interaction,Variant
1,with no effect,L695K
2,with no effect,Q672K
3,with no effect,P689A
4,disrupting interaction strength,G718D
5,with no effect,G718E
6,with no effect,A675E
7,with no effect,L795A
8,with no effect,T725K
9,with no effect,I776E
10,with no effect,G659E
11,with no effect,C783K
12,with no effect,H694E
13,disrupting interaction strength,M837K
14,with no effect,F684A
15,with no effect,Q798K
16,with no effect,N866A
17,disrupting interaction strength,P840A
18,with no effect,L851A
19,with no effect,E848K
20,with no effect,S635K
21,with no effect,A739K
22,with no effect,L808A
23,with no effect,L882E
24,with no effect,L666K
25,with no effect,L692K
26,with no effect,A754E

row,effect of a mutation on the interaction,Variant
1,with no effect,A754K
2,with no effect,C826K
3,with no effect,Q643K
4,with no effect,V879A
5,with no effect,S637K
6,with no effect,T836K
7,with no effect,H652E
8,with no effect,S849A
9,with no effect,S886E
10,with no effect,S785E
11,disrupting interaction strength,S785A
12,with no effect,Q627E
13,with no effect,R674A
14,disrupting interaction strength,S723P
15,with no effect,A774E
16,with no effect,E654K
17,with no effect,I751K
18,with no effect,I751E
19,with no effect,L863A
20,with no effect,E660A
21,with no effect,T805E
22,with no effect,L870A
23,with no effect,P877A
24,with no effect,P877K
25,with no effect,T697K
26,with no effect,K821E

row,effect of a mutation on the interaction,Variant
1,with no effect,L698A
2,with no effect,Q742A
3,disrupting interaction strength,Q742L
4,disrupting interaction strength,Q742S
5,with no effect,K809E
6,with no effect,R683E
7,with no effect,K687E
8,with no effect,F721K
9,with no effect,A792K
10,with no effect,G841K
11,with no effect,N658K
12,with no effect,L819E
13,with no effect,L681K
14,with no effect,T782A
15,with no effect,V734E
16,with no effect,S787A
17,with no effect,A750E
18,with no effect,L752E
19,with no effect,L779A
20,with no effect,L779K
21,with no effect,S667K
22,with no effect,E770K
23,with no effect,L680A
24,with no effect,H811E
25,with no effect,F653A
26,with no effect,A833E

row,effect of a mutation on the interaction,Variant
1,with no effect,D747K
2,with no effect,A755E
3,with no effect,Y645E
4,disrupting interaction strength,L815F
5,with no effect,P847A
6,with no effect,D650A
7,with no effect,C634E
8,with no effect,T874K
9,with no effect,E878A
10,with no effect,L814K
11,with no effect,N800K
12,with no effect,V749K
13,with no effect,E622K
14,with no effect,Q693K
15,with no effect,Q693A
16,with no effect,G767A
17,with no effect,D631K
18,with no effect,V856E
19,with no effect,E668A
20,with no effect,I640E
21,with no effect,H778E
22,with no effect,S777A
23,with no effect,N719A
24,with no effect,N719K
25,with no effect,P758K

# Source: IntAct's records for PubMed 29039417
